In one test the target is T1, O3.
T1 chain: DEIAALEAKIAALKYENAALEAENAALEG
The test is described as follows: two-hybrid library CCNG1.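 Note: natural log of median RNA to DNA barcode read ratio; higher means stronger binding.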

The target in another test is T2, O4.
T2 chain: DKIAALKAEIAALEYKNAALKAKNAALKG
The test is described as follows: two-hybrid library CCNG1.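 Note: natural log of median RNA to DNA barcode read ratio; higher means stronger binding.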

The target in a further test is T3, O5.
T3 chain: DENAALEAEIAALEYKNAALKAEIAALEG
In words: two-hybrid library CCNG1.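 Note: natural log of median RNA to DNA barcode read ratio; higher means stronger binding.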

The target of another test is T4, O6.
T4 chain: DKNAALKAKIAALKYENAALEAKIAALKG
The test is described as follows: two-hybrid library CCNG1.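 Note: natural log of median RNA to DNA barcode read ratio; higher means stronger binding.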

The next test has as its target T5, O7.
T5 chain: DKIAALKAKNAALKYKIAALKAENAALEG
The test is described as follows: two-hybrid library CCNG1.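 Note: natural log of median RNA to DNA barcode read ratio; higher means stronger binding.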

A further test has as its target T6, O8.
T6 chain: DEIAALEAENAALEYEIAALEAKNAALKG
The test is described as follows: two-hybrid library CCNG1.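 Note: natural log of median RNA to DNA barcode read ratio; higher means stronger binding.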

In the next test the target is T7, O9.
T7 chain: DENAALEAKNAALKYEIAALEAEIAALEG
In words: two-hybrid library CCNG1.

For a further test, the target named is T8, APC1015-AA.
T8 chain: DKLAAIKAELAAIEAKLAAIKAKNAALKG
The test is described as follows: two-hybrid library CCmax. The conditions noted are these: mean of both orientations.

A further test addresses T9, APC1434-AA.
T9 chain: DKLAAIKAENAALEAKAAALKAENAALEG
In words: two-hybrid library CCmax. Particulars: mean of both orientations.

In the next test the target is T10, APC2237-AA.
T10 chain: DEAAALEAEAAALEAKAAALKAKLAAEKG
In words: two-hybrid library CCmax. Particulars: mean of both orientations.

For another test, the target named is T11, APC232-AA.
T11 chain: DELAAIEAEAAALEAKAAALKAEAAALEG
In words: two-hybrid library CCmax. Particulars: mean of both orientations.

A further test deals with T12, APC2405-AA.
T12 chain: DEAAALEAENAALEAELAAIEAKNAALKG
In words: two-hybrid library CCmax. The conditions noted are these: mean of both orientations.

In another test the target is T13, APC3645-AA.
T13 chain: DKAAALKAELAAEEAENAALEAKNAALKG
The test is described as follows: two-hybrid library CCmax. The conditions noted are these: mean of both orientations.

A further test concerns the target T14, APC4011-AA.
T14 chain: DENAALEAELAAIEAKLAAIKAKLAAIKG
The test is described as follows: two-hybrid library CCmax. The conditions noted are these: mean of both orientations.

In a further test the target is T15, APC4264-AA.
T15 chain: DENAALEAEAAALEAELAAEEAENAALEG
The test is described as follows: two-hybrid library CCmax.

The next test addresses T16, APC4436-AA.
T16 chain: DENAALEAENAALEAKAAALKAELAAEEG
The test is described as follows: two-hybrid library CCmax. The conditions noted are these: mean of both orientations.

The target in another test is T17, APC5383-AA.
T17 chain: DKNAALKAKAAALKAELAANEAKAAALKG
In words: two-hybrid library CCmax. The conditions noted are these: mean of both orientations.

The next test addresses T18, APC6108-AA.
T18 chain: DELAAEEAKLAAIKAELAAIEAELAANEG
In words: two-hybrid library CCmax. Particulars: mean of both orientations.

The target in the next test is T19, APC7099-AA.
T19 chain: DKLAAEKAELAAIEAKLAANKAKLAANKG
The test is described as follows: two-hybrid library CCmax. Particulars: mean of both orientations.

For the next test, the target named is T20, APC8191-AA.
T20 chain: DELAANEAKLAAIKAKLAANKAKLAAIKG
The test is described as follows: two-hybrid library CCmax. The conditions noted are these: mean of both orientations.

A further test has as its target T21, APC8910-AA.
T21 chain: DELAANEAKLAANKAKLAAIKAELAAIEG
In words: two-hybrid library CCmax. The conditions noted are these: mean of both orientations.

A further test concerns the target T22, APC9096-AA.
T22 chain: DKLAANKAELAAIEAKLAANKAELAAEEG
The test is described as follows: two-hybrid library CCmax. The conditions noted are these: mean of both orientations.

The target in the next test is T23, APC9319-AA.
T23 chain: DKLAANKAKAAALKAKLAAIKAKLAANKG
In words: two-hybrid library CCmax. The conditions noted are these: mean of both orientations.

For another test, the target named is T24, 4H3185-bH.
T24 chain: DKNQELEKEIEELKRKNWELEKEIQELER
In words: two-hybrid library CCNG1.

A further test deals with T25, 4H331-bH.
T25 chain: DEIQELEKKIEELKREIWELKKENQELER
In words: two-hybrid library CCNG1.

The target of the next test is T26, 4H3354-bH.
T26 chain: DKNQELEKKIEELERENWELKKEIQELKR
The test is described as follows: two-hybrid library CCNG1.

The target of another test is T27, 4H338-bH.
T27 chain: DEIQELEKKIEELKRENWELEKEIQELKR
The test is described as follows: two-hybrid library CCNG1.

Another test concerns the target T28, 4H3427-bH.
T28 chain: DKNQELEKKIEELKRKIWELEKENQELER
The test is described as follows: two-hybrid library CCNG1.

A further test deals with T29, 4H3782-bH.
T29 chain: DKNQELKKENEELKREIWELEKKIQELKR
In words: two-hybrid library CCNG1.

Another test deals with T30, 4H3855-bH.
T30 chain: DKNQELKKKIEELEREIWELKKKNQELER
In words: two-hybrid library CCNG1.

The target in a further test is T31, 4H4001-bN.
T31 chain: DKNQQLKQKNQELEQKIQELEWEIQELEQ
In words: two-hybrid library CCNG1.

In the next test the target is T32, 4H454-bH.
T32 chain: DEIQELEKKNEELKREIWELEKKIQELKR
In words: two-hybrid library CCNG1.

For a further test, the target named is T33, 4H568-bH.
T33 chain: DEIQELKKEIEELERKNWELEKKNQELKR
In words: two-hybrid library CCNG1.

The next test addresses T34, 4H607-bH.
T34 chain: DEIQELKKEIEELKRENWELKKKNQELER
The test is described as follows: two-hybrid library CCNG1.

The target of the next test is T35, 4H687-bH.
T35 chain: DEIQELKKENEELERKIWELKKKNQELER
In words: two-hybrid library CCNG1.

A further test addresses T36, 4H717-bH.
T36 chain: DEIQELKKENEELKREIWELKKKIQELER
In words: two-hybrid library CCNG1.

Another test concerns the target T37, 4H72-bH.
T37 chain: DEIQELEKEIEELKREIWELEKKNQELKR
In words: two-hybrid library CCNG1.

A further test deals with T38, 4H754-bH.
T38 chain: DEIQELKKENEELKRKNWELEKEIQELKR
The test is described as follows: two-hybrid library CCNG1.

The next test has as its target T39, 4H797-bH.
T39 chain: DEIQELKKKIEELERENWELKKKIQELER
The test is described as follows: two-hybrid library CCNG1.

The next test concerns the target T40, 4H883-bH.
T40 chain: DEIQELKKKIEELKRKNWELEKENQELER
The test is described as follows: two-hybrid library CCNG1.

For the next test, the target named is T41, 4H908-bH.
T41 chain: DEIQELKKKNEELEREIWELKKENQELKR
In words: two-hybrid library CCNG1.

In the next test the target is T42, 4H918-bH.
T42 chain: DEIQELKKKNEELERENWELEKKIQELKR
The test is described as follows: two-hybrid library CCNG1.

The target of another test is T43, 4H953-bH.
T43 chain: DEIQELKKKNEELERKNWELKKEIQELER
The test is described as follows: two-hybrid library CCNG1.

The next test has as its target T44, 4H967-bH.
T44 chain: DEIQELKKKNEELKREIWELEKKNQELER
The test is described as follows: two-hybrid library CCNG1.

From PMC10397247 come the findings set out here.

DEIAALEAKIAALKYENAALEAENAALEG [O3]: the interaction score in the test with O3 was -2.29; with O4, 2.05; with O5 it was -2; with O6 it was -2.73; with O7 it was -2.58; in the test with O8, -2.29. The molecule also showed an interaction score with O9 of -2.28.
On to DEIAALKAKIAALEAKIAALEAKNAALEG [4H807-AA], for which the interaction score is -0.714 with APC1015-AA; -1.82 in the test with APC1434-AA; -1.21 with APC2237-AA; -1.73 with APC232-AA; -1.49 with APC2405-AA; -1.3 with APC3645-AA. In addition, the interaction score with APC4011-AA was 1.45; with APC4264-AA, -1.72; with APC4436-AA, -1.65; in the test with APC5383-AA, -1.89; in the test with APC6108-AA it was -1.43; with APC7099-AA it was -1.32. Moreover, the interaction score with APC8191-AA is -2.1; with APC8910-AA, -1.59; with APC9096-AA, -1.75; in the test with APC9319-AA it was -1.71.
Take DKNQELEKEIEELKRKNWELEKEIQELER [4H3185-bH]: the interaction score with 4H3185-bH is 0.0268; in the test with 4H331-bH, -0.701; with 4H3354-bH, -0.583; in the test with 4H338-bH, -0.56; in the test with 4H3427-bH, -0.801; with 4H3782-bH, -0.522. Besides, the interaction score was -0.899 with 4H3855-bH; 0 with 4H4001-bN; -1.16 in the test with 4H454-bH; -2.61 with 4H568-bH; -0.833 in the test with 4H607-bH; -0.899 with 4H687-bH. Also, the interaction score in the test with 4H717-bH was -0.724; with 4H72-bH, -1.26; with 4H754-bH, -1.15; with 4H797-bH, -1.22; with 4H883-bH, -0.72; with 4H908-bH it was -0.797. Also, the interaction score with 4H918-bH was -1.09; in the test with 4H953-bH, -1.21; with 4H967-bH, -1.56.
